Source: patent US5968782

Target: mouse fibrinogen (mouse) (UniProt E9PV24)

| Substance | fibrinogenolysis assay: time required for thrombin to clot mouse plasma [s] | time required for thrombin to clot mouse plasma (control) [s] |
| --- | --- | --- |
| recombinant mMCP-7-FLAG (EK-activated mature mouse mast cell protease 7 with C-terminal FLAG peptide) (enzyme) | > 40 |  |
| thrombin (enzyme) |  | 15 |
